# From publication PMC8364239 (The Plant Cell, 2021)
# How the values were obtained:
# His6-tagged SEC5B = molecular target: T1, His6-tagged SEC5B (Arabidopsis thaliana, UniProt F4HWE6 1-1090); assay: pull-down
# T1 sequence: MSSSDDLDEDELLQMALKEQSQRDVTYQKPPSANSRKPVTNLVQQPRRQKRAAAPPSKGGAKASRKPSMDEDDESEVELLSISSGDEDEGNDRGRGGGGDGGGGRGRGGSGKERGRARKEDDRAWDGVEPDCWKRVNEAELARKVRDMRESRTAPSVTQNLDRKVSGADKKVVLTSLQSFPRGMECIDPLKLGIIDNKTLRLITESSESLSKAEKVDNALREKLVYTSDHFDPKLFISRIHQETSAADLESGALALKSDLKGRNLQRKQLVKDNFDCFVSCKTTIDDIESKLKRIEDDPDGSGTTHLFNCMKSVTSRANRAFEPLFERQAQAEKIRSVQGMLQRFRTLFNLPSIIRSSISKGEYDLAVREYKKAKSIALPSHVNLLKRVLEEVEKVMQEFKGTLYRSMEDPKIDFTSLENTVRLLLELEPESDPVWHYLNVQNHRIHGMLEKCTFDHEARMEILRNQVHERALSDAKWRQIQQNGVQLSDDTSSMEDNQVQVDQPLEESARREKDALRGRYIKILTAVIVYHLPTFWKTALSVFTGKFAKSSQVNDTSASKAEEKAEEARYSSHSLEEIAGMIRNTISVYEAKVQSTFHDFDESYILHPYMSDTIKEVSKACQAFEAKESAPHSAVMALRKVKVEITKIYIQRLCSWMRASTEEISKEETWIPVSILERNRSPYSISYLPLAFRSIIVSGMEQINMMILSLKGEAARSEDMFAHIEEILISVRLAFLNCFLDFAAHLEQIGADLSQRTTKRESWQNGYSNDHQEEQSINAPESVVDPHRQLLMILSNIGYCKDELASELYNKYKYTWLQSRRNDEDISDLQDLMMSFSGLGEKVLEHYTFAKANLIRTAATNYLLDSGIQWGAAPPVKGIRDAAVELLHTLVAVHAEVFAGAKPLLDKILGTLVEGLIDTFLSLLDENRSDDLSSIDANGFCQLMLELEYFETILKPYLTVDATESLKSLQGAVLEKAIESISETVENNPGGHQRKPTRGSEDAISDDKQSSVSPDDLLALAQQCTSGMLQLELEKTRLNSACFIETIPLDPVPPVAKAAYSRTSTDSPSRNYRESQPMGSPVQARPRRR
# His6-tagged SEC15B = molecular target: T2, His6-tagged SEC15B (Arabidopsis thaliana, UniProt F4JHH5 1-787); assay: pull-down
# T2 sequence: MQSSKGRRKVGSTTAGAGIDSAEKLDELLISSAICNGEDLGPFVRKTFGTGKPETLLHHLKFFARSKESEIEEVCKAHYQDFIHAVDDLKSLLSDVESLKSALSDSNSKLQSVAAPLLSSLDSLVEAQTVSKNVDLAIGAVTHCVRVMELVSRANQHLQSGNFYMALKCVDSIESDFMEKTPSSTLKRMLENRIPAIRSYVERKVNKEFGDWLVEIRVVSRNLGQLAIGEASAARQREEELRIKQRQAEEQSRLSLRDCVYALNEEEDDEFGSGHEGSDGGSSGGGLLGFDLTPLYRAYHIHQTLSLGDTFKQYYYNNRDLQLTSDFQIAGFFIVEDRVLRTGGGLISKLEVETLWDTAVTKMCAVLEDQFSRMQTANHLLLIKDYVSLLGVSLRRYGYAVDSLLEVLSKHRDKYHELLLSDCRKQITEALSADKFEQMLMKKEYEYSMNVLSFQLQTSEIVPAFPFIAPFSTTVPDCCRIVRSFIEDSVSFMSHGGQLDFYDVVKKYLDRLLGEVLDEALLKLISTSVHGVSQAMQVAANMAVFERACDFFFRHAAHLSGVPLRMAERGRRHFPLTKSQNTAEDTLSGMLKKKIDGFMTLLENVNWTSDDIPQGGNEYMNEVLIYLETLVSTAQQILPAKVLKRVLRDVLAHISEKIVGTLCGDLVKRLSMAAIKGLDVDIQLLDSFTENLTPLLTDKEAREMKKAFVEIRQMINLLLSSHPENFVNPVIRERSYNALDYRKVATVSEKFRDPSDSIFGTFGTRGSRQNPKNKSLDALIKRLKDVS
Binder,binding result (His6-tagged SEC5B),binding result (His6-tagged SEC15B)
GST-tagged myosin XIK GTD (wild type) (domain or fragment) ISPTSRTMATRSKTMLLPRTPENGNYLNGGTKTTPDMTLAVREPESEEKPQKHLNEKQQENQDLLVKCISQNLGYNGDKPVAACVIYKCLLHWRSFEVERTSVFDRIIQTIATAIEVPDNNEVLAYWLSNSATLLLLLQRTLKATGAASLTPQRRRTTSASLFGRMSQGLRGSPQSAGLSFLNRQGLTKLDDLRQVEAKYPALLFKQQLTAFLEKIYGMIRDNLKKEISPLLGLCIQAPRTSRASLVKGRAQANAVAQQALIAHWQSIRKSLNSYLNLMKANNAPPFLVRKVFTQIFSFINVQLFNSLLLRRECCSFSNGEYVKAGLAELEQWCIEATDEYAGSAWDELRHIRQAVGFLVIHQKPKKTLDEITRELCPVLSIQQLYRISTMYWDDKYGTHSVSSDVIANMRVMMTEDSNNAVSSSFLLDDDSSIPFTVEDISKSMQQVDVNDIEPPQLIRENSGFGFLLTRKEGSTS,binds,binds
GST-XIK GTD K1103A (domain or fragment) ISPTSRTMATRSKTMLLPRTPENGNYLNGGTKTTPDMTLAVREPESEEAPQKHLNEKQQENQDLLVKCISQNLGYNGDKPVAACVIYKCLLHWRSFEVERTSVFDRIIQTIATAIEVPDNNEVLAYWLSNSATLLLLLQRTLKATGAASLTPQRRRTTSASLFGRMSQGLRGSPQSAGLSFLNRQGLTKLDDLRQVEAKYPALLFKQQLTAFLEKIYGMIRDNLKKEISPLLGLCIQAPRTSRASLVKGRAQANAVAQQALIAHWQSIRKSLNSYLNLMKANNAPPFLVRKVFTQIFSFINVQLFNSLLLRRECCSFSNGEYVKAGLAELEQWCIEATDEYAGSAWDELRHIRQAVGFLVIHQKPKKTLDEITRELCPVLSIQQLYRISTMYWDDKYGTHSVSSDVIANMRVMMTEDSNNAVSSSFLLDDDSSIPFTVEDISKSMQQVDVNDIEPPQLIRENSGFGFLLTRKEGSTS,binds,
